Measured values taken from patent US20230382979A1 (ADAPTIVE BIOTECHNOLOGIES, published 2023).

B1: antibody 2706 (antibody, V domains shown)
VH: QVQLVQSGAEVKKPGSSVKVSCKASGGTFSTYAISWVRQAPGQGLEWMGGIIPLFATANYAQNFQGRVTITADKSTSTAYMELSSLRSEDTAVYYCASVRLHLEELSLSHQGDYYYGLDVWGQGTTVTVSS
VL: DIQMTQSPSSLSASVADRVTITCQASQDISHYLNWYQQKPGKAPQLLIYDASKLETGAPSRFSGSGSGTDFTFTISSLQPEDIATYYCQQYDHLPLTFGGGSKVEIK
B2: antibody 2729 (antibody, V domains shown)
VH: QVTLKESGPVLVKPTETLTLTCTVSGFSLSNARMGVSWIRQPPGKALEWLAHIFSNDEKSYSTYLKSRLTISKDSSKSQVVLTMTIMDPVDTATYYCARTAGRYSSRWGHYYYYMDVWGKGTTVTVSS
VL: NFMLTQPHSVSESPGKTVTISCTGSNGSIASNFMQWYQQRPGSAPTIVIYEDNQRPSGVPDRFSGSIDGSSNSASLTISGLKTEDEADYYCQSYDSSDSDLGVFGGGTKLTVL
B3: antibody 1231 (antibody, V domains shown)
VH: QVQLVQSGSELKKPGASVKVSCTGYGYTFTSYAMNWVRQAPGQGLEWMGWINTNTGHPAYAQGFTGRFVFSLDSSVSTAYLQISSLKAEDTAVYYCATTIRAGGYFDFWGQGTLVTVSS
VL: DIQLTQSPSFLSASVGDRVTITCRASQGISSYLAWFQQKPGKAPKLLIYVVSILQSGVPSRFSGSGSGTEFTLTISSLQPEDFATYYCQQLNSYPYTFGQGTKLEIK
B4: antibody 1679 (antibody, V domains shown)
VH: QITLKESGPTLVKPTQTLTLTCTFSGFSLSTVGVGVAWIRQPPGKALEWLALIYWDDDKRYSPSLKSRLTITKDTSKNHVVLTMTNMDPVDTATYYCAHHIIAALVDVWGKGTTVTVSS
VL: QSALTQPASVSGSPGQSITISCTGTSSDVGGNNYVSWYQHHPGEAPKLMIYEVSNRPSGVSNRFSGSKSGNTASLTISGLQAEDEADYYCSSYTTSSTLVVFGGGSKLTVL
B5: antibody 1213 (antibody, V domains shown)
VH: QMQLVQSGAEVKKTGSSVKVSCEASENTFTNRYLHWVRQAPGQALEWMGWITPFQGNTHYAQKFQDRVTITRDRSMNTVYMELSSLRSEDTAIYYCASGGQYGPGSYYFEFWGQGTLVTVSS
VL: EIVMTQSPATLSVSPGERATLSCRASQSIRNNLAWYRQKPGQAPRLLIYGASTRAAGVPARFSGSGSGTEFTLTISSLQSEDFAVYYCQQYINWPPLTFGGGTKVEIK
B6: antibody 1227 (antibody, V domains shown)
VH: QMQLVQSGAEVKKTGSSVKVSCEASGYTFTNRYLHWVRQAPGQALEWMGWITPFQGNTNYAQKFQDRVTITRDMSMNTVYMELSSLRSEDTAKYYCASGGQYGAGSYYLEDWGQGTLVTVSS
VL: EIVMTQSPATLSVSPGERATLSCRASQSVRSNLAWYRQKPGQAPRLLIYGASTRATGVPARFSGSGSGTEFTLTISSLQSEDFAVYYCQQYINWPPLTFGGGTRVEIK
B7: antibody 3086 (antibody, V domains shown)
VH: QVQLQESGPGLVKPSETLSLTCTVSGGSISGHYWSWIRQPPGKGLEWIGYIYYSGSTNYNPSLKSRVTISVDTSVNQFSLKLSSVTAADTAVYYCARQEARDAVGNYFFDSWGQGTLVTVSS
VL: QSALTQPASVSGSPGQSITISCSGTSSDIGSYDLVSWYQQHPGKAPKLLIYDVTKRPSGVSHRFSGSKSGNTASLTISGLQGEDEADYYCCSYVHFSTWVFGGGTKLTVL
B8: antibody 980 (antibody, V domains shown)
VH: QVQLVESGGGVVQPGRSLRLSCAASGFTFSRYGMHWVRQAPGKGLEWVALISSGGSNKYYADSVKGRFTISRDNSKNTLYLEMNSLRAEDTAVYYCAKDAIYDYIWGAYRENWFDPWGQGTLVTVSS
VL: DIQMTQSPSSLSASVGDRVTITCRASQSISNYLNWYQQKPGKAPNLLIYAASSLQSGVPSRFSGSGSGTDFTLTISSLQPEDFATYYCQQTSSPPLTFGQGTKVEIK
B9: antibody 2619 (antibody, V domains shown)
VH: EVQLVESGGGLVQPGRSLRLSCAASGFTFDDYAMHWVRQAPGKGLEWVSGISWNSGSIGYADSVKGRFTLSRDNAKNSLFLQMDSLRAEDTALYYCAKDVSYRSGSYYRFWGGSGSWGQGTLVTVSS
VL: DIQMTQSPSSLSASVGDRVTITCRASLSIRSYLNWYQQKPGKPPKLLIYAASSLQSGVPSRFSGSGSGTDFTLTISSLQPEDFATYYCQQSYSTPLTFGGGTKVEIK
B10: antibody 935 (antibody, V domains shown)
VH: EVQLVESGGGLVQPGGSLRLSCAASGFTVSSNYMSWVRQAPGKGLEWVSVIYSGGSTFYADSVKGRFTISRDNSRNTLYLQMNSLRAEDTAVYYCARDWGEFFFDFWGQGALVTVSS
VL: EIVLTQSPGTLSLSPGERATLSCRASQTISSSYLAWYQQKPGQAPRLLISGASSRATGIPDRFSGSGSGTDFTLTISRLEPEDFAVYYCQQYGSSPRTFGQGTNVEIK
B11: antibody 1826 (antibody, V domains shown)
VH: QVQLQESGPGLVKPSETLSLTCSVTGGSTNYYYWSWIRQPPGKGLEWIGYIYYSGTTNYNPSLKDRVTMSVDKSKTQLSLKLNSVTAADTAVYYCARHARHCTNGVCQTYYYYGLDVWGLGTTVAVSA
VL: QSVLTQPPSVSAAPGQRVTISCSGSSSNIGAGYDVHWYQHLPGTAPKLLIYNNNNRPSGVPDRFSASRSGTSASLAITGVQTEDEADYYCQSFDGRLSESGVFGGGTKLTVL
B12: antibody 2892 (antibody, V domains shown)
VH: QVQLVQSGAEVKKPGSSVKVSCKASGDAFISYAISWVRQAPGQGLEWMGGIIPIFGTANYAQKFQGRVTISADESTSTAYMELSRLRSEDTAVYYCARGGPEPYGSGSGYTPRYNWFDPWGQGTLVTVSS
VL: QSALTQPRSVSGSPGQSVTISCTGTSSDVGGYNYVSWYQQHPGKAPKFMIYDVNRRPSGVPDRFSGSKSGNTASLTISGLQAEDEADYYCCSYAGTYTWVFGGGTKLTVL
B13: antibody 2020 (antibody, V domains shown)
VH: QVQLVQSGAEVKKPGASVKVSCKASGYTFTDYFMHWVRQAPGQGLEWMGWVNPLSGGTNFAQKFQGRVTMTSDTSITTVYMELSRLRSDDTAVYYCARDPPLYSSTYGMDVWGQGTTVTVSS
VL: QSALTQPASVSGSPGQSITISCTGTSSDVGAYNYVSWYQQHPGKAPKLMIYDVSDRPSGVSNRFSGSKSGNTASLTISGLQAEDEADYYCSSYTISSSVVFGGGTKLTVL
B14: antibody 1864 (antibody, V domains shown)
VH: QVQLQESGPGLVKPSETLSLTCTVSGGSINYYYWSWIRQPPGKGLEWIGFIYSSGTTNYNPSLKSRVTMSVDSSKSQFSLKLSSVTAADSAVYYCARHSRSCTNGVCQTYYYYALDVWGHGTTVTVSS
VL: QSVLTQPPSVSGAPGQRVTISCTGSSSNIGAGYDVHWYQQLPGTAPKLLIYGNSNRPSGVPDRFSASKSGTSASLAIAGLQPEDEGDYYCQSYDGSLSESGVFGGGTRLTVL
B15: antibody 1851 (antibody, V domains shown)
VH: QVQLQESGPGLVKPSETLSLTCTVSGGSINYYYWSWIRQSPGKGLEWIGFIYSSGTTNYNPSLKSRVTMSVDSSKSQFSLKLSSVTAADSAVYYCARHSRSCTNGVCQTYYYYALDVWGHGTTVTVSS
VL: QSVLTQPPSVSGAPGQRVTISCTGSSSNIGAGYDVHWYQQLPGTAPKLLIYGNSNRPSGVPDRFSASKSGTSASLAIAGLQPEDEGDYYCQSYDGSLSESGVFGGGTRLTVL
B16: antibody 1870 (antibody, V domains shown)
VH: QVQLQESGPGLVKPSETLSLTCSVSGGSINYYYWSWIRQPPGKGLEWIGFIYSSGTTNYNPSLKSRVTMSVDTSKNQFSLKLSSVTAADSAVYYCARHSRSCTNGVCQTYYYYALDVWGHGTTVTVSS
VL: QSVLTQPPSVSGAPGQRVTISCTGSSSNIGAGYDVHWYQQLPGTAPKLLIYGNSNRPSGVPDRFSASKSGTSASLAIAGLQAEDEGDYYCQSYDGSLSESGVFGGGTRLTVL
B17: antibody 4441 (antibody, V domains shown)
VH: EVQLVESGGGLVQPGRSLRLSCAASGLTFEDYAMHWVRQPPGKGLEWVSGVSWNSGTIGYADSVKGRFTISRDNAKNSLYLHMRSLGAEDTAMYYCAKDMGGRFSFFSLENDAFDIWGQGTMVIVSS
VL: SYELTQPPSVSVSPGQTARITCSGDALPKQSTYWYQQKPGQAPVLVIYKDIERPSGIPERFSGSSSGTTVTLTISGVQAEDEADYYCQSADSSDTYVFGTGTKVTVL

Tests used:
[1] = target: S2 subunit of the SARS-CoV-2 spike protein, WA01/2020 strain (SARS-CoV-2, WA01/2020 strain, UniProt P0DTC2 686-1213); assay: ELISA, antibody at 0.1 ug/mL
[2] = target: T1, SARS-CoV-2 nucleocapsid (N) protein (SARS-CoV-2, UniProt P0DTC9 1-419); assay: ELISA, antibody at 0.1 ug/mL
[3] = target: SARS-CoV-2 spike protein, WA1/2020, borne on lentiviral pseudovirus (SARS-CoV-2, WA01/2020 strain, UniProt P0DTC2 14-1273); assay: cell-based or functional assay
[4] = target: S1 subunit of the SARS-CoV-2 spike protein, WA01/2020 strain (SARS-CoV-2, WA01/2020 strain, UniProt P0DTC2 16-685); assay: ELISA screening, antibody concentration not given
[5] = target: T1, SARS-CoV-2 nucleocapsid (N) protein; assay: ELISA screening, antibody concentration not given

Binder	binding result [1]	binding result [2]	Pseudo Neut, WA1/2020 IC50 (pM) [3] [pM]	binding result [4]	binding result [5]
B1	no binding (tested: 0.1 ug/mL)	no binding (tested: 0.1 ug/mL)	795		
B2	no binding (tested: 0.1 ug/mL)	no binding (tested: 0.1 ug/mL)	584		
B3			95000		
B4			> 163		
B5			90600		
B6			116000		
B7			82		
B8	no binding (tested: 0.1 ug/mL)	no binding (tested: 0.1 ug/mL)	952		
B9			213		
B10			420		
B11				no binding (tested: not printed)	no binding (tested: not printed)
B12	no binding (tested: 0.1 ug/mL)	no binding (tested: 0.1 ug/mL)	65		
B13	no binding (tested: 0.1 ug/mL)	no binding (tested: 0.1 ug/mL)	214		
B14				no binding (tested: not printed)	no binding (tested: not printed)
B15				no binding (tested: not printed)	no binding (tested: not printed)
B16				no binding (tested: not printed)	no binding (tested: not printed)
B17	no binding (tested: 0.1 ug/mL)	no binding (tested: 0.1 ug/mL)	276		
